Reference: the DeepSol protein solubility set

Assay: soluble on expression in E. coli; label from the status in PepcDB or PDB records
With “MSLRDSRYYCRLFSPAAVRGGIRRISAIYLNPSAFMSSLPITDRKIRFGLVGCGRISKNHIGAIAQHGDRAELVEICDTNPEALQAAEAATGARPFSSLSDMLAQGNADALVLATPSGLHPWQAIEVAQAGRHVVSEKPMATRWEDGKRMVKACDEAGVRLFVVKQNRRNATLQLVKKAIEQGRFGRIYMVTVNVFWTRPQEYYDAARWRGKWEWDGGAFMNQASHYVDLLDWLVGPVESVYAYTATLARRIEAEDTGVAALRWRHGAMGSINVTMLTYPQNLEGSITILGEKGTVRVGGVAVNRIDEWKFAEPHPDDDKIREANYETTSVYGFGHPLYYDNVINCLRGDCEPETDGREGLQSLALLTAIYRSARDGVRIPLPLDEGHHHHHH” the “soluble on expression in E. coli” value was “soluble”. In the case of “MAHHHHHHMHATKSGVTTLSASAGNSDVPVMSAAYEDAARQPNAVFVNVYDIMKSNSWLWSVGLGVHHAGIQVYDKEYQYGRCEEGSGVRAVEPRHSPPHIFREQFFVGQTQLSALEVRKLVARLEQCDTWQGSKYHLVKHNCIHFAQAFCEALLPPHVRVAQMRTALPSTYQSAYMEEVEVDGQQYSLPVLIPPHVSRLSNYATSYLPESALQMLDSMDNPFSTP”, the “soluble on expression in E. coli” value is reported as “soluble”. In the case of “MAHHHHHHMKPSQPSYDKRAYQTIYPQYLDAELTPHDGRRLTRTQAVDDPTTNEVVEALKELGYTDIFVEPSASFPRSQGSIKYIMPPKGCVKVAIKRPKGEHYIPKSDFDTQTRGVTVEDIPNKMELLRRVSALIKIQHALKKQAEAAAASQTANTRKK”, the “soluble on expression in E. coli” value is reported as “soluble”. In the case of “MISYGELIRQIRQSKKISQKEVYTGVISKSYAIEFEKGTHAISSILLEKIVTKLMVSMEEFFFMYHQEELPEKEDFWEAYERACKTDEIAIWELLYQKISSEEGKINQVKSAAIKLELDHIKGKQVMDKKVVRILENYLIEAVFWTLEDIFLFTRMLPYLSLKSRVPFYYKLLNTLDRYRHFERGRRILQTAIASIIDDFIEKNEIEHMELMIRSLKKISDDCEGAYFKILCMYYHGIIERGEGAEIKQAIAILRVLGYENKALKYEAMYRQFSLKATI”, the “soluble on expression in E. coli” value is reported as “not soluble”. With “GPGSMNCDQSPEAPCIVYICKLIDTQYLVGRVVGSVENHDGAFIGFGRVYSGRLRAGQPVYVHSDGVVVEATVGSVYLFRGAGLEETSEVSAGFLCGVGGLTPCITKYATISSVPNMPPFKPLVLQSTSIVRLSVFPKDPRSLQELERGLRLLYKVDPQVEVSMLPTGEHVIGTAGEVHAERCLKDLIDTFAQVEVVASEPLVSFRETIVSNLSAKPKPHTASLMDGAFHVTLQARPLPAEVLELIKDDGKNSGNNPQLLRQAVAALAEHRRFSADVKNGVVSSGPSRLGFLGAVLLANFDGTADPVACWATLQDWKESVVAGFQAACESGPMAQEPLYGVAFVVTNIFVDADSDISGGMVLPSVREACRAAMKLHPRRLVEPVYECTVYSSGFTQGKIYASLSRRRSEIVEEVPNEGSDLFYIRCWLPAVEAFGLQDELRVQTQGASTAQLQMSHWEVIDADPYFVPTTKEEFEEHGAEVATKNIAEQLLERIMRRKGLYRERVVENAEKQKFSLKGA” the “soluble on expression in E. coli” value was “not soluble”. For “MSKMTRHDAQLYELKKKIEELKKIRGRGTELISLYIPAGYDLSKVMQQLREEYSTAQNIKSKTTRKNVLGALERAMQHLKLYKQTPENGLALFVGNVSEIEGNTDIRLWAIIPPEPLNVRLYRCDQTFVTEPLEEMLRVKDAYGLITVEKNEATIGLLRGKRIELLDELTSNVPGKTRAGGQSARRYERIREQETHEFMKRIGEHANRAFLPLLEKGELKGIIIGGPGPTKEEFVEGEYLHHELKKKILGVVDISYHGEYGLRELVEKASDILRDHEVIREKKLVNEFLKHVVKDTGLATYGEREVRRALEIGAVDVLLISEGYNKVRVRVKCNHCGWEELKTMSEEEYEVYRKKITKCPKCGSQNLTIEKWDVAEELIKMAEEAGSDVEIISLDTEEGQQFYRAFGGLGAILRFKI”, the “soluble on expression in E. coli” value was “soluble”. For “AMANIAQRPKRGPHDAAIQNILTELQNHAAAWPFLQPVNKEEVPDYYDFIKEPMDLSTMEIKLESNKYQKMEDFIYDARLVFNNCRMYNGENTSYYKYANRLEKFFNNKVKEIPEYSHLID”, the “soluble on expression in E. coli” value was “soluble”. In the case of “MGSDKIHHHHHHMKKYYIYILTAVLPILWGACNNGDDIDTKHSIFSTEPMEHNGFDEWLLANYTYPYNVDFKYRMQDIESDHKYNLVPADYDKSVALAKIIKHVWMEAYTELAGPAFLRSYVPKTFHLIGSPAYDSSGTKVLGTAEGGKKITLYEVNSLDFENVDIEVLNEYYFKTMHHEFAHILHQKRNYDPSFDRITEGKYVGSDWYFYVAENGNSYLREDADAWPEGFVTAYAMSEAREDFVENIAMYVTHDQAYWDNMLKVAGTAGAAIINQKFTIVYNYMLETWGINLDDLREIVLRRQQEIPELDLSTIE”, the “soluble on expression in E. coli” value is reported as “not soluble”.
